Test results as given in the supplement of paper PMC12042874.
± gives the uncertainty stated by the source.

Assay: amyloid nucleation score (Sup35N fusion, yeast selection) (log enrichment); library NNK2; higher = more nucleation; inactive = no reads after selection
Outline: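 Output and input plasmid inserts were sequenced by Illumina after psi-negative yeast carrying Sup35N fused to peptides of 20 random codons had been induced 24 hours with 100 μM copper sulfate and grown 7 days at 30°C on medium lacking adenine and uracil. The nucleation score is the DiMSum log enrichment of output over input reads, centred on the mode score of non-aggregating sequences. Sequences with under 100 input reads were excluded.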

| Substance | amyloid nucleation score |
| --- | --- |
| FYVVFLNGVLLDYNDDLYGI | inactive |
| FYYCRALWVYLVTCWHCLSY | -0.864 ± 1.1 |
| GAAFILSIYYQPSTTPPLRA | 2.62 ± 0.084 |
| GAAHDSYMNRWLITWNSKCK | -1.52 ± 0.76 |
| GALRGGVTRLQILRCFFYFW | 0.491 ± 0.74 |
| GASSF | inactive |
| GCGGDKKDFVISFWWEKYFR | -1.74 ± 0.53 |
| GCGSNSDLLHPGIFGLCKLV | -0.3 ± 0.31 |
| GCGVL | -0.91 ± 0.55 |
| GCIAIIDWMNLTLFTLLLSS | -0.375 ± 0.76 |
| GCLLRCDKRGGLRPSW | 0.66 ± 0.24 |
| GCNLFYCLTRSSIETNTSIS | 4.3 ± 0.095 |
| GCVTSGMLMTLIIH | -0.218 ± 0.48 |
| GDFSFCTHLLSYNLRGWPVV | 0.192 ± 0.74 |
| GDKLIEGRASGKGNWILERG | 1.19 ± 0.34 |
| GDYTYRG | 0.773 ± 0.66 |
| GECRRWKFGLWENVPDMSIK | 0.177 ± 0.48 |
| GELDGNRERILRRRGTMDYQ | 2.56 ± 0.091 |
| GELRIYRLGHCVCVSMSLPA | 1.27 ± 0.36 |
| GEMYV | -0.31 ± 1 |
| GEPLNGSAGLVGH | 0.234 ± 0.34 |
| GEQSDFSSSYSYLLWKVWDG | -1.2 ± 0.36 |

| Substance | amyloid nucleation score |
| --- | --- |
| GEYINAWSLNIV | -0.683 ± 0.64 |
| GFCPLVRPSCESFRLQERLV | -0.303 ± 0.63 |
| GFEQRGIRVMFVPYDINFSV | 6.269 ± 0.031 |
| GFIVRMDTMLSSALASYCRL | -0.25 ± 0.63 |
| GFRFLLKLLFGFKKV | inactive |
| GFSLC | 0.541 ± 0.66 |
| GFSSNLVVLKKPS | -0.249 ± 1.1 |
| GFVTDFIIKSI | -1.07 ± 0.64 |
| GFWVDQNSDPNWVSQAPDFM | inactive |
| GFYIKVFNSEWYALNLDVRL | 4.67 ± 0.075 |
| GGCVYSVTLFFTWTEWGKAK | -0.516 ± 0.79 |
| GGDSECGYNGVFVGYAVFWC | 0.128 ± 0.29 |
| GGGNCKKGYGCDVDCYESEG | -0.735 ± 0.56 |
| GGLIE | -0.817 ± 1.1 |
| GGLWTGLVSASKEFSK | inactive |
| GGPCDRGTFMMCDPWSFSLL | 0.513 ± 0.39 |
| GGYIQRNNDNRFAEQV | inactive |
| GHFAF | -0.159 ± 1.1 |
| GHFRFEHCVSVSLSSIFSNE | 1.55 ± 0.11 |
| GHVTYLVTAPHV | 2.89 ± 0.14 |
| GIFGMC | 0.366 ± 0.56 |
| GIGMRQYMNT | 0.823 ± 0.32 |

| Substance | amyloid nucleation score |
| --- | --- |
| GIIDLHAYLFKVHEWAHPHR | 6.07 ± 0.063 |
| GIIRSWNIRPLEMPKE | 0.176 ± 0.27 |
| GILGQGDYYLRN | -0.422 ± 1 |
| GIMQCFGSMRMQWCNSDKEC | 5.021 ± 0.037 |
| GIPVMPTDSRGTPGVMVFEY | -1.25 ± 1 |
| GISVLRQTVFDLSIFIPHTS | 4.42 ± 0.055 |
| GIVRGYMLSHLFV | 0.262 ± 0.25 |
| GKFCIFASMADLMEW | -0.491 ± 0.42 |
| GKGDVGESRADCLAYSRRMS | 0.868 ± 0.45 |
| GKGWKSVVYSNMGRVSGCCK | 2.81 ± 0.12 |
| GKINITAFAWLKAFADRHWI | 0.705 ± 0.8 |
| GKMGYFEWGVLDYIVRLSGT | 0.851 ± 0.27 |
| GKRFNFVTCPPVLRR | -0.088 ± 0.34 |
| GKSYVYIRLGIFSMWASHRR | 2.72 ± 0.08 |
| GKYMEDYNAENQNPSTMMES | -0.01 ± 0.47 |
| GLCKFKQVCTNSVGNYVGYF | -2.18 ± 0.62 |
| GLCMYGVTAKRMLVVWRERG | 8.804 ± 0.046 |
| GLDPRCNNTPVTLYVLSPWV | -0.588 ± 1.1 |
| GLGAWFEI | 0.485 ± 0.29 |
| GLLVELWSLLIIRYNLSAYL | -0.841 ± 0.48 |
| GLMRVRYESHRMKAGSLVSR | 1.89 ± 0.36 |
| GLNCTIV | 1.67 ± 0.32 |

| Substance | amyloid nucleation score |
| --- | --- |
| GLQSVDGLQNTYLGSNAVVD | 0.87 ± 0.26 |
| GLSGFSPQFASATIAQSIP | 1.36 ± 0.23 |
| GLSRFA | -0.582 ± 1.1 |
| GLTLMWALFGSVYGLRSGMG | 0.89 ± 0.28 |
| GLWLRFVCSIYFLMYIVHIN | inactive |
| GLYIEKARQRYPRSQHLIAM | -0.419 ± 0.49 |
| GLYTKT | 0.028 ± 0.14 |
| GMGSVCGIIEYAWTA | 0.627 ± 0.3 |
| GMNQCCPD | -0.455 ± 0.61 |
| GMPQESHSYPLYEMLLGRVG | -0.064 ± 0.3 |
| GMRWSFGVLASRSFCVKWCP | 5.57 ± 0.09 |
| GMVDLGVGSWCMEP | 0.893 ± 0.15 |
| GMVRRQVTLMSSSDRAI | -1.07 ± 1.1 |
| GMYYPREIEFLAFWSTTRGR | -0.956 ± 1 |
| GNFMTECLQARICGPDGEKK | 5.12 ± 0.095 |
| GNKLYFCSFAWLEVFKFKDL | 1.86 ± 0.082 |
| GNLDRYRYLETDKSGAMLGV | 4.3 ± 0.064 |
| GNNNMRPIALCTLSMGGRTF | -0.575 ± 0.49 |
| GNRDF | inactive |
| GNTGSGSDSKLYLAMP | -0.076 ± 0.79 |
